From patent US7264809B1, “Methods of inhibiting platelet activation and recruitment” (Immunex Corporation, priority 1998, dated 2007)

Assays:
[1] = TLC assay for ATPase activity; assay type: biochemical
Experimental: Following growth in selective medium, CM from CHO cell cultures was analyzed for ATPase and ADPase activities. ADPase assays (Marcus et al., J. Clin. Invest. 88:1690, 1991) were primarily used in determining enzyme kinetics and pharmacokinetics. Test samples were incubated with 50 μM [^14C] ADP (NEN Life Science Products) in assay buffer (15 mM Tris, 134 mM NaCl, 5 mM glucose, pH 7.4, containing 10 μM Ap5A (P^1,P^5-di[adenosine-5′]pentaphosphate, 1 mM ouabain, 10 μM dipyridamole, and 3 mM CaCl2) in a total volume of 50 μl (5 min, 37° C.). Reactions were stopped by placement on ice and addition of 10 μl “stop solution” (160 mM disodium EDTA, pH 7.0, 17 mM ADP, 0.15 M NaCl) to block further metabolism of ADP. Nucleotides, nucleosides, and bases were separated by TLC using isobutanol/1-pentanol/ethylene glycol monoethyl ether/NH4OH/H2O (90:60:180:90:120). Radioactivity was quantified by radio TLC scanning (RTLC multiscanner; Packard, Meriden, Conn.). Results were calculated as averages of duplicate to quadruplicate measurements after subtraction of buffer blanks (consistently <1% of total radioactivity). Data were expressed as percentage of ADP metabolized or as pmol ADP metabolized per minute per μl CM. A unit of activity is the quantity of enzyme which will degrade 1 μmol of ADP in 1 min at 37° C. Identical assays were performed using ATP as a substrate in order to examine the kinetics of the ATPase activity of CD39.
Using the TLC assay system described in Example 12B, the ADPase activity of the membrane-bound HUVEC ecto-ADPase was determined at different pHs in buffers containing 100 mM bis-trispropane (Sigma, St. Louis, Mo.). […] Kinetic constants for CD39 metabolism of ATP and ADP were determined by measuring the initial rates of reaction as analyzed in the TLC system.

[2] = Bleeding time and tolerability in pigs; assay type: in vivo, Yorkshire-Hampshire pigs
Experimental: Aspirin was administered orally on a daily basis. Placebo controls consisted of aspirin. Saline controls and solCD39 were administered as a single bolus. Time points were measured following this administration. Blood samples were obtained via an external jugular vein catheter. […] ADP-induced platelet aggregation was measured at specific time intervals following administration. The concentration of CD39 in serum as a function of time was measured using an ELISA assay.

[3] = design: species or system Balb/c mice; details: mouse, in vivo, iv
Experimental: At various times after injection (5, 10, 30 min, 1, 2, 4, 8, 24 h), pairs of mice were bled by cardiac puncture and euthanized. Serum was prepared from each blood sample and frozen until assay. […] The data were fit using […], Monterey, Calif.). The best fit was derived using double exponential decay. Where indicated, specificity of enzyme activity was determined by incubating serum samples with anti-CD39 mAb-coated beads to remove CD39 prior to testing for ATPase activity.

[4] = tested on: murine platelets; assay: Ex vivo aggregation of murine platelets; assay type: in vivo, C57BL/6J mice; details: PRP 1 hour after soluble CD39 4 mg/kg or aspirin 5 mg/kg
Experimental: C57BL/6J mice (6-8 wk) were obtained from Jackson Laboratories (Bar Harbor, Me.). […] 80 μL of 3.8% trisodium citrate was added to each mL of blood. […] The PRP contained 400-700×10^3 platelets per μL. All experiments were completed within 2 hours of blood collection. PRP (200 μL) was preincubated, for 3 min. at 37° C., with 100 μL Tris-buffered saline buffer ([…], 5 mM glucose, pH 7.4) in an aggregometer cuvette (Lumiaggregometer; Chrono-Log, Havertown, Pa.), and the platelet agonists ADP, collagen, or sodium arachidonate were added at the final concentrations indicated.

[5] = tested on: platelets; assay: Platelet aggregation in human platelet-rich plasma; assay type: cell-based
Experimental: After obtaining informed consent from volunteers, blood was collected via plastic tubing using acid citrate-dextrose (38 mM citric acid; 75 mM sodium citrate; 135 mM glucose) as anticoagulant. Where indicated, volunteers had ingested 650 mg acetylsalicylic acid (ASA) 18 h prior to blood donation. […] The stock suspension of PRP was maintained at room temperature under 5% CO2-air. […] Total volumes were adjusted to 300 μl with TSG buffer (Marcus et al., J. Clin. Invest. 88:1690, 1991; Marcus et al., J. Clin. Invest. 99:1351, 1997). […] A mock-treated sample was also prepared in which the FSBA solution was replaced with water. After incubating at 37° for 90 min., the samples were centrifuged in a Centricon-10 filter unit (Amicon Corp.) for 1 hour at 5,500 rpm and buffer exchanged into PBS to remove unreacted material.

[6] = tested on: mouse platelets; assay: Reversal of ADP-induced aggregation of mouse platelets in vitro; assay type: cell-based; details: 5 μM ADP; soluble CD39 2.5 or 1.25 μg/ml
Experimental: ADP (5 μM) was added to mouse platelets in vitro to induce an aggregation response. Soluble CD39 (2.5 μg/ml or 1.25 μg/ml) was added at the peak of the aggregation response.

B1: solCD39: recombinant soluble human CD39, untagged: 12 mature huIL2 residues, three amino acid linker, sol CD39 (SEQ ID NO:7) (protein)
chain: MALWIDRMQLLSCIALSLALVTNSAPTSSSTKKTQLTSSTQNKALPENVKYGIVLDAGSSHTSLYIYKWPAEKENDTGVVHQVEECRVKGPGISKFVQKVNEIGIYLTDCMERAREVIPRSQHQETPVYLGATAGMRLLRMESEELADRVLDVVERSLSNYPFDFQGARIITGQEEGAYGWITINYLLGKFSQKTRWFSIVPYETNNQETFGALDLGGASTQVTFVPQNQTIESPDNALQFRLYGKDYNVYTHSFLCYGKDQALWQKLAKDIQVASNEILRDPCFHPGYKKVVNVSDLYKTPCTKRFEMTLPFQQFEIQGIGNYQQCHQSILELFNTSYCPYSQCAFNGIFLPPLQGDFGAFSAFYFVMKFLNLTSEKVSQEKVTEMMKKFCAQPWEEIKTSYAGVKEKYLSEYCFSGTYILSLLLQGYHFTADSWEHIHFIGKIQGSDAGWTLGYMLNLTNMIPAEQPLSTPLSHST
Vmax for ATP ([1]; 2×10^−9 M solCD39): 26 pmol/min | kcat (ATP) ([1]; 2×10^−9 M solCD39): 4.33 s⁻¹ | specific activity for ATP ([1]; purified recombinant solCD39): 4 U/mg | anemia or thrombocytopenia ([2]; pig, in vivo): did not induce | tolerability ([2]; pigs, 72-670 μg/kg bolus): well tolerated | apyrase activity cleared from the circulation during distribution phase [3]: 55-65% | t1/2α (distribution phase), ADPase assay ([3]; 50 ug): 43 min | t1/2α (distribution phase), ATPase assay ([3]; 50 ug): 59 min | ex vivo platelet aggregation, collagen ([4]; 2.5 μg/ml collagen): attenuated | ex vivo platelet aggregation, ADP ([4]; 10 μM ADP): abrogated | ex vivo platelet aggregation, arachidonate ([4]; 0.1 mM sodium arachidonate): attenuated | platelet aggregation induced by 10 μM ADP ([5]; 3.3 μg/ml solCD39, PRP from aspirin-ingesting donor): abruptly terminated | induction of platelet activation by ADP or collagen ([5]; ASA-treated PRP, 10 μM ADP (4.4 μg/ml) or collagen (22 μg/ml)): significantly inhibited | effect on collagen-induced aggregation with increasing quantity ([5]; PRP from aspirin-ingesting donor): dose dependent | platelet responsiveness to 5 μM ADP ([5]; PRP with or without 10 μM indomethacin, CM containing solCD39 from COS-1 and CHO cells): completely abrogating | platelet aggregation response to collagen ([5]; collagen 1 μg/ml, PRP): markedly reduced | aggregation response when added at the peak [6]: immediately reversed
